Data on one molecule can be found in publication PMC3005583.

The data set addresses lysozyme (Lys) (UniProt P00698 19-147). As to the kind of experiment: competition.

B1: Anti-Lys aptamer / Competitor 3 probe (mixed)
DNA 1: ATCAGGGCTAAAGAGTGCAGAGTTACTTAG
DNA 2: ATCAGGGCACTCTTTAGCCCTGAT
modifications: 5' and 3' pyrene via (CH2)6 on strand 2
In the case of B1, the binding result is “binds”.
